Here are results for two molecules from patent US20030170653A1, “Biological method for the production of tuliposide A and its intermediates” (priority 2001, published 2003).

Format in all cases: biochemical
Series [1] is described as follows: Dehydrogenase assay of protein extracts, oxidation of NADPH or NADH at 340 nm. As to conditions: 1.5 mM succinic semialdehyde; for activity with NADH as electron donator: 0.5 mM NADH; for specific activity: 0.5 mM NADPH, pH 7.2, room temperature, protein extract. As for the experimental part: Plasmids pTrcEtp and pTrcAds were retransformed into TOP10 cells and freshly plated transformants were used in gene expression studies. In addition, the pTrcHis-TOPO/lacZ plasmid (Invitrogen) was also transformed into TOP10 cells to be used as a negative control in expression experiments. Freshly transformed Escherichia coli colonies containing pTrcEtp, pTrcAds or pTrcHis-TOPO/lacZ were inoculated into 2 mL of LB liquid media containing ampicillin (100 μg/mL) and grown at 37° C. for 5 h. These were then transferred to 100 mL of LB liquid media containing ampicillin (100 μg/mL) and cultures were grown overnight at room temperature. The next morning, the cultures were diluted to an OD600 nm of 0.2 and were grown at room temperature until the OD600 nm reached 0.8. IPTG was added to the cultures to a concentration of 0.4 mM and cultures were grown for an additional 3 h at room temperature. The cultures were then centrifuged at 10,000× g for 15 min, the supernatant was decanted and the resulting pellet was resuspended in 2 mL of breakage buffer (100 mM HEPES, pH 7.2; 10 % glycerol; 1 mM AEBSF; 1 μg/mL leupeptin; and 1 μg/mL pepstatin). Cells were broken by passage two times through a french press and the resulting extract was centrifuged at 16,000× g for 15 min at 4° C. The supernatant was carefully removed (soluble protein) and the pellet was resuspended in 1 mL of breakage buffer. An additional 1 mL of breakage buffer containing 12 mM CHAPS was added and after mixing and incubation on ice for 30 min, the mixture was centrifuged at 16,000× g for 15 min at 4° C. The supernatant was carefully removed (CHAPS soluble protein) and the pellet was resuspended in 2 mL of breakage buffer (insoluble protein).
Protein extracts (soluble, CHAPS soluble and insoluble) from TOP10 cells containing pTrcEtp, pTrcAds and pTrcHis-TOPO/lacZ were assayed by measuring the oxidation of NADPH or NADH using the decrease in absorbance at 340 nm (Hearl et al., J. Biol. Chem. 260:16361-16366 (1985)). Assays contained 100 mM potassium phosphate (pH 7.2), 10% glycerol, 1.5 mM succinic semialdehyde, 0.5 mM of either NADPH or NADH and from 10 μg-400 μg of enzyme extract in a total volume of 1 mL. Assays were initiated by addition of succinic semialdehyde and were measured at room temperature. Protein concentrations of each extract were determined using the BioRad protein assay (Biorad). Protein extracts were also analyzed by SDS-PAGE.

A short description of series [2]: Kinetic analysis of purified dehydrogenases with succinatesemialdehyde and NADPH. The settings on record: purified enzyme 3 μg/mL, succinatesemialdehyde 0.1-30 mM, 0.5 mM NADPH, pH 7.0. How it is done:
Cultures were grown at 37° C. for 5 h and then were transferred to 100 mL of LB liquid media containing ampicillin (100 μg/mL). These were grown overnight at room temperature. The next morning, 50 mL of each culture was transferred to 1 L of LB and grown at room temperature until the OD600 nm reached 0.8. IPTG was added to the cultures to a concentration of 0.4 mM and cultures were grown for an additional 4 h at room temperature. The cultures were then centrifuged at 10,000× g for 15 min, the supernatant was decanted and the resulting pellet was resuspended in 10 mL of breakage buffer (100 mM HEPES, pH 7.2; 10 % glycerol; 1 mM AEBSF; 1 μg/mL leupeptin; and 1 μg/mL pepstatin). Cells were broken by passage two times through a french press and the resulting extract was centrifuged at 16,000× g for 15 min at 4° C. The supernatant was carefully removed and 40 mL of Ni loading buffer (20 mM sodium phosphate, pH 7.5; 10 mM immidazole; 500 mM sodium chloride) was added. Proteins were loaded onto a 5 mL Hitrap chelating column (Pharmacia, Inc.) pre-equilibrated with 100 mM nickel sulfate and washed with 20 mL of loading buffer. Another wash with 50 mL of loading buffer containing 60 mM immidazole was carried out and bound proteins were eluted with a gradient of loading buffer containing immidazole from 60 mM to 1000 mM. All fractions were analyzed by SDS-PAGE.
(§1) All proteins eluted at around 120 mM immidazole. Purified proteins from pTrcAds and pTrcEtp were assayed with succinatesemialdehyde and NADPH as described above. […] Assays contained 0.5 mM NADPH, 100 mM sodium phosphate (pH 7.0), 1 mg/mL BSA, succinatesemialdehyde and enzyme in 200 μL total. Assays were carried out at various concentrations of succinatesemialdehyde (0.1-30 mM) using 3 μg/mL of each enzyme. Under these conditions, the kinetic parameters for the Arabidopsis dehydrogenase (kcat=1290 min-1, KM=4 mM) and the Tulip dehydrogenase (kcat=1200 min^−1, KM=3 mM) were determined. The ablility of each enzyme to reduce to α-methylenesuccinatesemialdehyde to α-methylene-γ-hydroxybutyrate was assessed in a coupled assay. The GABT protein from E. coli, purified as described above, was used to generate α-methylenesuccinatesemialdehyde from α-methylene-γ-aminobutyrate. This assay was carried out in the presence or absence of the Arabidopsis and Tulip dehydrogenase. […] To this was added either the Arabidopsis or Tulip protein (20 μg/mL and 3 μg/mL) or no additional protein as negative control. Assays were incubated at room temperature for 30 min and the reaction was stopped with 10% HCl. Acidification of the assay also served to partially convert α-methylene-γ-hydroxybutyrate to α-methylene-γ-butyrolactone (MBL). […] Compounds were detected with a Waters 9600 PDA detector. […]

Series [3] is described as follows: Coupled assay with purified GABT: reduction of α-methylenesuccinatesemialdehyde, MBL detected by HPLC. As to conditions: coupled with 100 μg GABT, 1 mM α-methylene-γ-aminobutyrate, 0.5 mM NADPH, room temperature, 30 min. As for the experimental part: as §1

B1: GHBD2: γ-hydroxybutyrate dehydrogenase homolog from Arabidopsis (SEQ ID NO: 16), expressed from pTrcAds (protein)
chain: MEVGFLGLGIMGKAMSMNLLKNGFKVTVWNRTLSKCDELVEHGASVCESPAEVIKKCKYTIAMLSDPCAALSVVFDKGGVLEQICEGKGYIDMSTVDAETSLKINEAITGKGGRFVEGPVSGSKKPAEDGQLIILAAGDKALFEESIPAFDVLGKRSFYLGQVGNGAKMKLIVNMIMGSMMNAFSEGLVLADKSGLSSDTLLDILDLGAMTNPMFKGKGPSMNKSSYPPAFPLKHQQKDMRLALALGDENAVSMPVAAAANEAFKKARSLGLGDLDFSAVIEAVKFSRE
modifications: Arabidopsis
B1: in series [1], the “activity with NADH as electron donator” value is given as “no activity” and the specific activity was determined as 0.097 μmol/min^−1/mg^−1. In addition, in series [2], the Km (as a rule, the substrate concentration at which the rate is half of its maximum) is 4 mM; the kcat (as a rule, the number of substrate molecules converted per active site and unit of time at saturation) turned out to be 21.5 s⁻¹. Further, the “conversion of α-methylenesuccinatesemialdehyde” value in series [3] is “could convert”.

B2: GHBD1: γ-hydroxybutyrate dehydrogenase homolog from tulip pistil (SEQ ID NO: 14), expressed from pTrcEtp (protein)
chain: MEVGFLGLGIMGKAMAVNLLRSGFRVTVWNRTLSKCNELLEQGASVGETPAAVIKKCKYTIAMLSDPSAALSVVFDKDGVLEHMSSGKGYIDMSTVDAVTSSKISEAITQKGGHFLEAPVSGSKKPAEDGQLVILAAGEKALYEEIIPAFEVLGKKSFFLGQVGNGANMKLIVNMIMGSMMNALSEGLSLAGKSGLEQKTLLDVLDLGAIANPMFKLKGPAMIQNNHPPAFPLKHQQKDMRLALALGDENAVSMPVAAAANEAFKKARSLGLGDLDFSAVYEVLKYGDAS
modifications: tulip pistil
Turning to B2, in series [1], the “activity with NADH as electron donator” value is “no activity” and the specific activity is recorded as 0.14 μmol/min^−1/mg^−1. Further, in series [2], the Michaelis-Menten constant (Km) is 3 mM and the kcat stood at 20 s⁻¹. The “conversion of α-methylenesuccinatesemialdehyde” value in series [3] is reported as “could convert”.
